Target: GST-PfPP1c (P. falciparum)

pNPP dephosphorylation activity of recombinant PfPP1c (40 pmol, without GST) pre-incubated 30 min at 37°C with different amounts of PbGEXP15 (4–178); concentration-dependent increase [fold] | pNPP dephosphorylation activity of recombinant PfPP1c (40 pmol, without GST) pre-incubated 30 min at 37°C with different amounts of PbGEXP15 (4–590); concentration-dependent increase [fold] | Substance
2 | – | 6-His PbGEXP15 (4–178) (domain or fragment)
– | 2 | 6-His PbGEXP15 (4–590) (domain or fragment)

From article PMC6685639
